Assay results: publication PMC12463286
Numbering of substitutions follows the chain as printed.

Legend:
Test in all cases: EMSA
Details in all cases: pH 7.5, 30 min at 37 C
[1] = target: T1, FadR (Streptococcus suis serotype 2 strain ZY05719) (UniProt A0A0H3MZ02)
T1 sequence: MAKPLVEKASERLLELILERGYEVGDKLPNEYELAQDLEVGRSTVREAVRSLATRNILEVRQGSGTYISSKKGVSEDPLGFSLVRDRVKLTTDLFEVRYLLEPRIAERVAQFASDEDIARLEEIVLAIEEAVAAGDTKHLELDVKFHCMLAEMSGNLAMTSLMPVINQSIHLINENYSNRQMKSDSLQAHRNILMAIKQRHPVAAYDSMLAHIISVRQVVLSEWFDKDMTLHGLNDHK

[2] = target: T2, FadR-T230E T230E (Streptococcus suis serotype 2 strain ZY05719) (UniProt A0A0H3MZ02)
T2 sequence: T1 sequence with T230E

[3] = target: T3, FadR-T230A T230A (Streptococcus suis serotype 2 strain ZY05719) (UniProt A0A0H3MZ02)
T3 sequence: T1 sequence with T230A

Measured: binding

CTGTCCTCCTTGTAGATTTATACATGATGGGAAACGAGGAGGACCGTACGCTTTCCTGCCTCTCATTTCCTCTTTACATCCATAGTTTAACAGAGCAAAAAAACAAAAACTTGAAAACGCTCACATTTATTTTGAGAAATTCTTCACATTTTTAACCTTATTTATAAATAATTATCGATTATATCATCTAAATTCTGCATAATTCTTTCCGTTATATCATTATATGAATTTTTATTTTTTTATAAAAAACAGAAACTTCAATGAGTTTCTGTCAAATTTTCTAAGAAATAATCAATATCT (double strand) [adi promoter]
binds: all assays above
